Biological target: MSLN-Fc2 (Mesothelin-antibody Fc fusion protein) (human)
Experiment: SPR

Muc16 SEA11 module, uncleaved (with the Siderocalin fusion partner) (domain or fragment)
Kd: > 10000 nM

Muc16 SEA10 module, uncleaved (with the Siderocalin fusion partner) (domain or fragment)
Kd: 899 nM

— article PMC11316652
